Data published in the supplement of paper PMC9233669.
This sample holds only a part of the variants without activity.

Assays:
biotinyl-Phe-oxazolone = experiment: self-aminoacylation, catalytic enhancement (BFO) (fold over background); higher = more active; k-Seq, kA / k0A0; sequences stand for … in GGGAAUGGAUCCACAUCUACGAAUUC…UUCACUGCAGACUUGACGAAGCUG
Procedure, shortened: (§1)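 Catalytic enhancement equals the median kA over the uncatalyzed rate, the latter read from the low-activity peak of a bimodal Gaussian fit. Values of kA came from fitting each sequence's fraction reacted to a pseudo-first-order model, with 1000 bootstraps. Reacted RNA was captured with streptavidin and quantified by triplicate qPCR and Illumina sequencing after 90 minutes at room temperature with 2–1250 μM biotinyl-aminoacyl-oxazolone and 0.43 μM mutagenized RNA pools bearing a 21-nt variable region.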

biotinyl-Ile-oxazolone = experiment: self-aminoacylation, catalytic enhancement (BIO) (fold over background); higher = more active; k-Seq, kA / k0A0; sequences stand for … in GGGAAUGGAUCCACAUCUACGAAUUC…UUCACUGCAGACUUGACGAAGCUG
Procedure, shortened: as §1

biotinyl-Met-oxazolone = experiment: self-aminoacylation, catalytic enhancement (BMO) (fold over background); higher = more active; k-Seq, kA / k0A0; sequences stand for … in GGGAAUGGAUCCACAUCUACGAAUUC…UUCACUGCAGACUUGACGAAGCUG
Procedure, shortened: as §1

biotinyl-Val-oxazolone = experiment: self-aminoacylation, catalytic enhancement (BVO) (fold over background); higher = more active; k-Seq, kA / k0A0; sequences stand for … in GGGAAUGGAUCCACAUCUACGAAUUC…UUCACUGCAGACUUGACGAAGCUG
Procedure, shortened: as §1

biotinyl-Leu-oxazolone = experiment: self-aminoacylation, catalytic enhancement (BLO) (fold over background); higher = more active; k-Seq, kA / k0A0; sequences stand for … in GGGAAUGGAUCCACAUCUACGAAUUC…UUCACUGCAGACUUGACGAAGCUG
Procedure, shortened: as §1

biotinyl-Trp-oxazolone = experiment: self-aminoacylation, catalytic enhancement (BWO) (fold over background); higher = more active; k-Seq, kA / k0A0; sequences stand for … in GGGAAUGGAUCCACAUCUACGAAUUC…UUCACUGCAGACUUGACGAAGCUG
Procedure, shortened: as §1

Row | Sequence | self-aminoacylation (biotinyl-Phe-oxazolone) | self-aminoacylation (biotinyl-Ile-oxazolone) | self-aminoacylation (biotinyl-Met-oxazolone) | self-aminoacylation (biotinyl-Val-oxazolone) | self-aminoacylation (biotinyl-Leu-oxazolone) | self-aminoacylation (biotinyl-Trp-oxazolone)
1 | CUACUUCAAGCAAUCGGUGUG [Fam1A.1 aminoacylation ribozyme variant] | 3.56 | 1.26 | 1.59 | 1.24 | 1.83 | 3.13
2 | CUACUUCAAGCCAUCGGUCUG [Fam1A.1 aminoacylation ribozyme variant] | 0.772 | 0.89 | 0.729 | 1.04 | 1.15 | 0.696
3 | CUACUUCAAUCAAACGGUCUG [Fam1A.1 aminoacylation ribozyme variant] | 0.638 | 0.637 | 0.639 | 0.794 | 0.671 | 0.481
4 | CUACUUCAAUCAAUCGGUCGG [Fam1A.1 aminoacylation ribozyme variant] | 15.8 | 1.15 | 1.39 | 1.04 | 1.47 | 12.2
5 | CUACUUCAAUCAAUCGGUCUA [Fam1A.1 aminoacylation ribozyme variant] | 13.7 | 0.972 | 0.871 | 0.914 | 1.02 | 7.18
6 | CUACUUCAAUCAAUCGGUCUG [Fam1A.1 aminoacylation ribozyme variant] | 31.7 | 1.01 | 1.04 | 1.03 | 1.44 | 17.9
7 | CUACUUCAAUCAAUCGGUUUG [Fam1A.1 aminoacylation ribozyme variant] | 26.6 | 0.895 | 0.886 | 0.96 | 1.21 | 15.1
8 | CUACUUCAAUCACUCGGUCUG [Fam1A.1 aminoacylation ribozyme variant] | 0.649 | 0.866 | 0.68 | 0.835 | 0.746 | 0.688
9 | CUACUUCAAUCUAUCGGUCUG [Fam1A.1 aminoacylation ribozyme variant] | 1.28 | 0.888 | 0.902 | 0.907 | 0.836 | 0.936
10 | CUACUUCACACAAUCGGCCUG [Fam1A.1 aminoacylation ribozyme variant] | 0.896 | 1.69 | 1.75 | 1.86 | 1.75 | 1.72
11 | CUACUUCACACAAUCGGUCUA [Fam1A.1 aminoacylation ribozyme variant] | 0.822 | 0.72 | 0.626 | 0.834 | 0.802 | 0.777
12 | CUACUUCACACAAUCGUUCUG [Fam1A.1 aminoacylation ribozyme variant] | 0.66 | 0.649 | 0.477 | 0.61 | 0.484 | 0.392
13 | CUACUUCACGCAAUCGGUCUG [Fam1A.1 aminoacylation ribozyme variant] | 0.929 | 0.837 | 0.912 | 0.908 | 0.711 | 0.819
14 | CUACUUCAGACAAUCGGUCUC [Fam1A.1 aminoacylation ribozyme variant] | 1.09 | 0.936 | 0.857 | 0.977 | 0.895 | 0.825
15 | CUACUUCAGACAAUCGGUCUG [Fam1A.1 aminoacylation ribozyme variant] | 1.19 | 0.782 | 0.758 | 0.822 | 0.807 | 0.857
16 | CUACUUCAGACACUCGGUCUG [Fam1A.1 aminoacylation ribozyme variant] | 1.77 | 1.2 | 1.49 | 1.54 | 1.52 | 1.03
17 | CUACUUCAGACCAUCGGUCUG [Fam1A.1 aminoacylation ribozyme variant] | 1.06 | 1.1 | 1.25 | 1.07 | 1.14 | 0.856
18 | CUACUUCAGCCAAUCGGUCUG [Fam1A.1 aminoacylation ribozyme variant] | 0.64 | 0.691 | 0.713 | 0.673 | 0.842 | 0.425
19 | CUACUUCAUAAAAUCGGUCUG [Fam1A.1 aminoacylation ribozyme variant] | 0.567 | 0.656 | 0.699 | 0.641 | 0.622 | 0.389
20 | CUACUUCAUACAAUCGAUCUG [Fam1A.1 aminoacylation ribozyme variant] | 0.752 | 0.657 | 0.653 | 0.806 | 0.505 | 0.601
21 | CUACUUCAUACAAUCGGUCUU [Fam1A.1 aminoacylation ribozyme variant] | 0.932 | 1.01 | 0.724 | 0.972 | 0.844 | 0.491
22 | CUACUUCAUACAAUCUGUCUG [Fam1A.1 aminoacylation ribozyme variant] | 0.66 | 0.668 | 0.64 | 0.682 | 0.566 | 0.424
23 | CUACUUCAUACAAUUGGUCUG [Fam1A.1 aminoacylation ribozyme variant] | 0.656 | 0.743 | 0.755 | 0.849 | 0.731 | 0.453
24 | CUACUUCAUACAGUCGGUCUG [Fam1A.1 aminoacylation ribozyme variant] | 0.496 | 0.574 | 0.52 | 0.67 | 0.556 | 0.282
25 | CUACUUCAUAGAAUCGGUCUG [Fam1A.1 aminoacylation ribozyme variant] | 0.644 | 0.783 | 0.75 | 0.749 | 0.837 | 0.698
26 | CUACUUCCAACAAUCGGUGUG [Fam1A.1 aminoacylation ribozyme variant] | 0.789 | 0.97 | 1.06 | 1.03 | 1.28 | 1.09

Row | Sequence | self-aminoacylation (biotinyl-Phe-oxazolone) | self-aminoacylation (biotinyl-Ile-oxazolone) | self-aminoacylation (biotinyl-Met-oxazolone) | self-aminoacylation (biotinyl-Val-oxazolone) | self-aminoacylation (biotinyl-Leu-oxazolone) | self-aminoacylation (biotinyl-Trp-oxazolone)
27 | CUACUUCCAACAGUCGGUCUG [Fam1A.1 aminoacylation ribozyme variant] | 0.496 | 0.911 | 1.06 | 0.851 | 0.971 | 0.76
28 | CUACUUCCAACAUUCGGUCUG [Fam1A.1 aminoacylation ribozyme variant] | 1.68 | 1.17 | 1.07 | 1.39 | 1.54 | 1.16
29 | CUACUUCCAGCAAUCGGUCUG [Fam1A.1 aminoacylation ribozyme variant] | 0.605 | 0.87 | 0.77 | 0.961 | 1.04 | 0.458
30 | CUACUUCGAACAACCGGUCUG [Fam1A.1 aminoacylation ribozyme variant] | 0.394 | 0.822 | 0.734 | 1.21 | 0.836 | 0.949
31 | CUACUUCGAACAAUCGGCCUG [Fam1A.1 aminoacylation ribozyme variant] | 4.78 | 1.6 | 1.71 | 1.54 | 1.36 | 1.84
32 | CUACUUCGAACAAUCGGUGUG [Fam1A.1 aminoacylation ribozyme variant] | 0.861 | 1.03 | 1.13 | 0.999 | 1.26 | 1.25
33 | CUACUUCGAACAAUCGUUCUG [Fam1A.1 aminoacylation ribozyme variant] | 0.268 | 0.432 | 0.453 | 0.49 | 0.457 | 0.368
34 | CUACUUCGAACAAUCUGUCUG [Fam1A.1 aminoacylation ribozyme variant] | 0.413 | 0.539 | 0.51 | 0.576 | 0.576 | 0.337
35 | CUACUUCGAACCAUCGGUCUG [Fam1A.1 aminoacylation ribozyme variant] | 0.458 | 0.723 | 0.813 | 0.779 | 0.61 | 0.463
36 | CUACUUCUAACAAUCGGUCGG [Fam1A.1 aminoacylation ribozyme variant] | 0.725 | 0.843 | 0.626 | 0.728 | 0.978 | 0.653
37 | CUACUUCUAACAAUGGGUCUG [Fam1A.1 aminoacylation ribozyme variant] | 0.582 | 0.833 | 0.718 | 0.705 | 0.697 | 0.566
38 | CUACUUGAAACAAUCGGUCUG [Fam1A.1 aminoacylation ribozyme variant] | 0.652 | 0.766 | 0.788 | 0.779 | 0.707 | 0.631
39 | CUACUUGAAACAAUCGUUCUG [Fam1A.1 aminoacylation ribozyme variant] | 0.5 | 0.635 | 0.614 | 0.561 | 0.645 | 0.379
40 | CUACUUGAAACAAUGGGUCUG [Fam1A.1 aminoacylation ribozyme variant] | 0.694 | 1.3 | 1.65 | 1.13 | 1.13 | 1.61
41 | CUACUUUAAAAAAUCGGUCUG [Fam1A.1 aminoacylation ribozyme variant] | 0.887 | 1.01 | 0.987 | 0.87 | 0.744 | 0.72
42 | CUACUUUAGACAAUCGGUCUG [Fam1A.1 aminoacylation ribozyme variant] | 0.65 | 0.77 | 0.847 | 0.826 | 0.7 | 0.518
43 | CUAGUACAAACAAUCGGUCUG [Fam1A.1 aminoacylation ribozyme variant] | 0.781 | 0.837 | 0.725 | 0.775 | 0.802 | 0.572
44 | CUAGUUAAAACAAUCGGUCUG [Fam1A.1 aminoacylation ribozyme variant] | 0.675 | 0.795 | 0.958 | 0.679 | 0.801 | 0.622
45 | CUAGUUCAAACAAUCCGUCUG [Fam1A.1 aminoacylation ribozyme variant] | 0.796 | 0.861 | 0.885 | 0.895 | 0.89 | 0.713
46 | CUAGUUCAAACAAUCGCUCUG [Fam1A.1 aminoacylation ribozyme variant] | 0.847 | 0.832 | 0.827 | 0.934 | 0.798 | 0.844
47 | CUAGUUCAAACAAUCGGUCAG [Fam1A.1 aminoacylation ribozyme variant] | 2.03 | 0.714 | 0.731 | 0.753 | 0.692 | 1.2
48 | CUAGUUCAAACACUCGGUCUG [Fam1A.1 aminoacylation ribozyme variant] | 5.58 | 1.35 | 1.46 | 1.31 | 1.48 | 1.04
49 | CUAGUUCAAACGAUCGGUCUG [Fam1A.1 aminoacylation ribozyme variant] | 0.559 | 0.782 | 0.812 | 0.794 | 0.844 | 0.58
50 | CUAGUUCACACAAUCGGUCUG [Fam1A.1 aminoacylation ribozyme variant] | 2.8 | 1.28 | 1.13 | 1.14 | 1.36 | 1.19
51 | CUAUUUCAAACAAUCAGUCUG [Fam1A.1 aminoacylation ribozyme variant] | 4.29 | 0.795 | 0.721 | 0.852 | 0.72 | 1.7
